Data taken from PMC3870659.

Biological target: integrin α4β7 on freshly isolated human primary B cells (human (endogenous in primary B cells)) (UniProt P13612)
Sequence of UniProt P13612 (P13612 34-1032, chain 1 of 2): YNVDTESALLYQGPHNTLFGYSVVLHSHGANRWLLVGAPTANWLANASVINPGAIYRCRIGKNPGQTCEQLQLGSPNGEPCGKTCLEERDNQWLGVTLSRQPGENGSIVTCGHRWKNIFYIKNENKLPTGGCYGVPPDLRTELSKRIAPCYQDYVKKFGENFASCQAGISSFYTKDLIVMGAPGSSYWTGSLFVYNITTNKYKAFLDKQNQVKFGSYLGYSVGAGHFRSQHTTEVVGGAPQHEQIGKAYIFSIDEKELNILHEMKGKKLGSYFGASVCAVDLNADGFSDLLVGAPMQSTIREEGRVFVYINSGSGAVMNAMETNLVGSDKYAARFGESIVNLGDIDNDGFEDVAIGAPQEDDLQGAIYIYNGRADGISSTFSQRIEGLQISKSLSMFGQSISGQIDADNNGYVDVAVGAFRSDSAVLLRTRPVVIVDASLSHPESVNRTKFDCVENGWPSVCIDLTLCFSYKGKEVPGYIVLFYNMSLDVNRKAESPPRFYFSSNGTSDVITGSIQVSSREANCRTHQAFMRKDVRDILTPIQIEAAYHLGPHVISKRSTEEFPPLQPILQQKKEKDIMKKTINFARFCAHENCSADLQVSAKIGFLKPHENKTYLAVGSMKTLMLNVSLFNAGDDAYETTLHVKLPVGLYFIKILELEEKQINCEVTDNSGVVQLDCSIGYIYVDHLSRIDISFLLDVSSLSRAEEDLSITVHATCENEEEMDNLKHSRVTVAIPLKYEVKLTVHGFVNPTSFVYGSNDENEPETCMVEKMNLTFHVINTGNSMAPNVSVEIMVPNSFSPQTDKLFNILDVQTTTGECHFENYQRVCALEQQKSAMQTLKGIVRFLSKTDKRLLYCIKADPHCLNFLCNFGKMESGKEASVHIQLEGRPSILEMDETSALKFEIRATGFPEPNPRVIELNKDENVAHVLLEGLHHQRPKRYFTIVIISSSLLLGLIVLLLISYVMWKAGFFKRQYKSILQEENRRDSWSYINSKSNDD
Sequence of UniProt P13612 (P26010 20-798, chain 2 of 2, further chain): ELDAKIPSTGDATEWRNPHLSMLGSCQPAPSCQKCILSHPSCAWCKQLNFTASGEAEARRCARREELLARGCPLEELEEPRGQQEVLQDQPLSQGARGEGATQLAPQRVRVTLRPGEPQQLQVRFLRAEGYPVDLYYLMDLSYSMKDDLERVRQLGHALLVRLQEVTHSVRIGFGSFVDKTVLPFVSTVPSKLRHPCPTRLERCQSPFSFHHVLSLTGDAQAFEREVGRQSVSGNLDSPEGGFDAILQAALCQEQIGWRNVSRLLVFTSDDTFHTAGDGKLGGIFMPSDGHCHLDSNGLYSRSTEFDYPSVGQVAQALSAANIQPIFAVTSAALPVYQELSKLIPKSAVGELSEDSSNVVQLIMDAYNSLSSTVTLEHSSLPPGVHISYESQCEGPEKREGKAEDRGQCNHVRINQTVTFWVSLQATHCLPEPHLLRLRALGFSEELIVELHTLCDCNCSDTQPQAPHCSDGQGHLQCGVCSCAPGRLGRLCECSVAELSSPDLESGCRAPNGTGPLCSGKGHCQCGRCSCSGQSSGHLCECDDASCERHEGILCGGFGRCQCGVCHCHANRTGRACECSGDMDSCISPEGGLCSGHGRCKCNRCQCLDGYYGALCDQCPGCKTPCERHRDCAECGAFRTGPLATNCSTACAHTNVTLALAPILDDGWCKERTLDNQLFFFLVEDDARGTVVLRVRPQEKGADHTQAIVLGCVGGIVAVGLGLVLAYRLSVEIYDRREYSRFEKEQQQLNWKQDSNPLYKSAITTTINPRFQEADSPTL

In the case of “R66M gp120 (HIV-1 envelope protein gp120 of the early viral isolate R66M, subtype A/C) (natural protein)”, the FCRL4 mRNA (microarray) in anti-IgM + CpG stimulated B cells, 6 h with gp120 is reported as 8 fold.
